Assay results as given in patent CN114480298A (MEGEE TRANSF MEDICAL RESEARCH SUZHOU CO LTD, dated 2022).

What was measured:
[1] = target: T1, 人TIGIT (人体组织细胞膜上表达的TIGIT蛋白) (human, UniProt Q495A1 22-244); test: immunohistochemistry on FFPE human tissue, primary antibody 3.5 μg/mL
T1 construct: whole, on cells
T1 sequence (looked up): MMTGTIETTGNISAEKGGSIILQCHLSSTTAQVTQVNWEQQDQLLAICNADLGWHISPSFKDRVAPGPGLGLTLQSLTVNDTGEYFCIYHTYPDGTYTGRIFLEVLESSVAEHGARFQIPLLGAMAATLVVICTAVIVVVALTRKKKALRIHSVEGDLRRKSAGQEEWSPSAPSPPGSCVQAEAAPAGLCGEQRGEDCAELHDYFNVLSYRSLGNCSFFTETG

TF-TIGIT融合蛋白 (原核表达) = target: T2, TF-TIGIT融合蛋白 (原核表达) (human (TIGIT part)); test: Western blot, 0.2 μg antigen per lane, primary antibody 0.2 µg/mL
T2 construct: also called TF-TIGIT蛋白; 原核表达的TF-TIGIT蛋白
T2 chain: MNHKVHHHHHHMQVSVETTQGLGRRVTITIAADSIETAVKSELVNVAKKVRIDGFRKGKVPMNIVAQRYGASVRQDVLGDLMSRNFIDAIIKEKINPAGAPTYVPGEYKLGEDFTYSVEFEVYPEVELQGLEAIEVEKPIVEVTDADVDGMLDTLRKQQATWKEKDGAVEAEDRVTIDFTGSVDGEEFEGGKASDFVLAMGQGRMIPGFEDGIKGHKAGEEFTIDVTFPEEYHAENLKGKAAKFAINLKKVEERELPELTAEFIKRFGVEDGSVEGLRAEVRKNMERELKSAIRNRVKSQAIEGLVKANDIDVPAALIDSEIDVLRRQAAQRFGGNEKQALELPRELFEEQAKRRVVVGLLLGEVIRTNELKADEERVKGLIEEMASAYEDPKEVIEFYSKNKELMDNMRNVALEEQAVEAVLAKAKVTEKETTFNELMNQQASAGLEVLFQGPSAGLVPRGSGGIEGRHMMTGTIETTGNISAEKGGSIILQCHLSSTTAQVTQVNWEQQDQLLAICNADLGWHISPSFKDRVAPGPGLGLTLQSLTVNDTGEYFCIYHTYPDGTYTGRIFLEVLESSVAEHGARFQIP

binding result [1]: binds | binding result (TF-TIGIT融合蛋白 (原核表达)): binds
B1: 抗TIGIT单克隆抗体MJ12-30 (antibody, mouse IgG1, kappa, V domains shown)
VH: EVKLEQSGGVLVQPGGSRKLSCAASGFTFHSFGMHWVRQAPEKGLEWVAYISSGGSTIFYADTVKGRFTISRDNPKNTLFLQMTSLRSEDTAMYYCAGSDHGNLGYWGQGTTLTVSS
VL: DIVLTQSPLSLSVSLGDQASISCRSSQSILHSGGNTYLDWFLQRPGQSPKLLIYKVSNRISGVPDRFSGSGAGTDFTLKISRVEAEDLGVYYCFQGNHVPPTFGGGTKLEIKR
notes: full chains used here; also called 鼠抗人TIGIT单克隆抗体杂交瘤细胞系MJ12-30 (CGMCC No.45102) 分泌的抗体
